From article PMC9482650, “Quantitative fragmentomics allow affinity mapping of interactomes” (Nature Communications, 2022)

T1: DFNB31_2, Q9P202
T1 sequence (Q9P202 274-371, limits assumed, looked up): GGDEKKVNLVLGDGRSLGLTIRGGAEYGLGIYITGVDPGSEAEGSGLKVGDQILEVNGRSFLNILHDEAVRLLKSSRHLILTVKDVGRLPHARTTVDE

T2: HTRA4, P83105
T2 sequence (P83105 378-476, limits assumed, looked up): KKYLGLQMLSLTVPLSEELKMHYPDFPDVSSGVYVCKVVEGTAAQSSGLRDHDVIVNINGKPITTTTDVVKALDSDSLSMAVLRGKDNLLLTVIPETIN

T3: GRIP1_7, Q9Y3R0
T3 sequence (Q9Y3R0 999-1096, limits assumed, looked up): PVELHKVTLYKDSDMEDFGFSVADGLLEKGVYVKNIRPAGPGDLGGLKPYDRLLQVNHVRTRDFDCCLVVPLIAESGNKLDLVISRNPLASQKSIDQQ

T4: MPDZ_10, O75970
T4 sequence (O75970 1624-1722, limits assumed, looked up): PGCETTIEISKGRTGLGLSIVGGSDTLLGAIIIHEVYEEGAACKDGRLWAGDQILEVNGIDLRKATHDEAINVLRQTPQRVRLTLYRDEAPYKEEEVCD

T5: LIN7A, O14910
T5 sequence (O14910 103-200, limits assumed, looked up): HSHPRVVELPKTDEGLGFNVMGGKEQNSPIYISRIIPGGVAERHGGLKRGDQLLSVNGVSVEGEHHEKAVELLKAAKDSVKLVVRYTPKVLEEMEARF

T6: TX1BP3, O14907
T6 sequence (O14907 10-122, limits assumed, looked up): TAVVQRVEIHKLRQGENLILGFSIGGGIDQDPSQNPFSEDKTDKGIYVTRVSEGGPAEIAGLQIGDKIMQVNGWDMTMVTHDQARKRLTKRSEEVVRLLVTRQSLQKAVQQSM

T7: APBA2_2, Q99767
T7 sequence (Q99767 654-744, limits assumed, looked up): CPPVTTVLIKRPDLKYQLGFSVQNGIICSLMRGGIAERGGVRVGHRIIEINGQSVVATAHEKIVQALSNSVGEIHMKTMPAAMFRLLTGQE

T8: MPP2, Q14168
T8 sequence (Q14168 180-250, limits assumed, looked up): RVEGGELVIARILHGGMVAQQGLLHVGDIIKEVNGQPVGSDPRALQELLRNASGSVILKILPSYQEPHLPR

T9: NHERF3_4, Q5T2W1
T9 sequence (Q5T2W1 373-468, limits assumed, looked up): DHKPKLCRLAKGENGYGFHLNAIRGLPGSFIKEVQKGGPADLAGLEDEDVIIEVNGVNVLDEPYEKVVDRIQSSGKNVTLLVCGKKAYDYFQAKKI

T10: RADIL, Q96JH8
T10 sequence (Q96JH8 971-1071, limits assumed, looked up): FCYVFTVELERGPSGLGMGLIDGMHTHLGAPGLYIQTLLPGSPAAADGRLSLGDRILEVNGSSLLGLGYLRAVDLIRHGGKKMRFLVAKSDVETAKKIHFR

T11: PCLO, Q9Y6V0
T11 sequence (Q9Y6V0 4491-4600, limits assumed, looked up): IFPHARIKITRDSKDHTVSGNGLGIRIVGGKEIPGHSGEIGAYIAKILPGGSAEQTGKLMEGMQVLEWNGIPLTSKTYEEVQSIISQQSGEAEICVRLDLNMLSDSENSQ

T12: LNX2_2, Q8N448
T12 sequence (Q8N448 334-432, limits assumed, looked up): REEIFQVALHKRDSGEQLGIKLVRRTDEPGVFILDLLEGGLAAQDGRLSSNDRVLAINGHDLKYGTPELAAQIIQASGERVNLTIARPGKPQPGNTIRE


Tests used:
Assay in all cases: holdup assay
Parameters in all cases: key: below the threshold = too weak to quantify, mostly under pKd 3.1 to 4
Details in all cases: plain residues with an end cap or a label only (N-terminal biotin on a linker: ado-ado)
LNX1_3, Q8TBB1 = molecular target: LNX1_3, Q8TBB1
Sequence of LNX1_3, Q8TBB1 (Q8TBB1 500-596): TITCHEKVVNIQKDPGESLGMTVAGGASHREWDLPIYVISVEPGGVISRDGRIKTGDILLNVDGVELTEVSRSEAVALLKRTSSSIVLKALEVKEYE

Inadl_8, Q8NI35 = molecular target: Inadl_8, Q8NI35
Sequence of Inadl_8, Q8NI35 (Q8NI35 1425-1530): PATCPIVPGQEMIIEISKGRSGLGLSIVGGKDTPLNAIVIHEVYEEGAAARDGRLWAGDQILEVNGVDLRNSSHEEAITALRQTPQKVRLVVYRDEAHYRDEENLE

ARHGEF12, Q9NZN5-2 = molecular target: ARHGEF12, Q9NZN5-2
Sequence of ARHGEF12, Q9NZN5-2 (Q9NZN5 other isoform, or with tags, fused parts or gaps): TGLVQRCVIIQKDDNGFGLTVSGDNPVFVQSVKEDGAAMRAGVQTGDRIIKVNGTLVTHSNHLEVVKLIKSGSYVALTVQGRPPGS

DFNB31_2, Q9P202 = molecular target: T1, DFNB31_2, Q9P202
FRMPD2_3, Q68DX3 = molecular target: FRMPD2_3, Q68DX3
Sequence of FRMPD2_3, Q68DX3 (Q68DX3 1073-1166): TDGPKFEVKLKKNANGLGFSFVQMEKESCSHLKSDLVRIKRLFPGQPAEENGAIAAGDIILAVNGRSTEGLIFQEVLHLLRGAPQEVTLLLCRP

MAGI1_1, Q96QZ7 = molecular target: MAGI1_1, Q96QZ7
Sequence of MAGI1_1, Q96QZ7 (Q96QZ7 1-106): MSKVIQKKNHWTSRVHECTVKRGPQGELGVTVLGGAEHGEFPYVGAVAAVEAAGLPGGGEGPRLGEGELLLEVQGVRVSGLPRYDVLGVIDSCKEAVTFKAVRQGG

HTRA4, P83105 = molecular target: T2, HTRA4, P83105
GRIP1_7, Q9Y3R0 = molecular target: T3, GRIP1_7, Q9Y3R0
MAGI3_2, Q5TCQ9 = molecular target: MAGI3_2, Q5TCQ9
Sequence of MAGI3_2, Q5TCQ9 (Q5TCQ9 398-503): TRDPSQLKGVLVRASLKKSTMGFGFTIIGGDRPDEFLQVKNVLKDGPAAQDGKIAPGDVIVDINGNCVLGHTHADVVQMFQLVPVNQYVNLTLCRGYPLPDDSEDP

MPDZ_10, O75970 = molecular target: T4, MPDZ_10, O75970
Inadl_9, Q8NI35 = molecular target: Inadl_9, Q8NI35
Sequence of Inadl_9, Q8NI35 (Q8NI35 1530-1615): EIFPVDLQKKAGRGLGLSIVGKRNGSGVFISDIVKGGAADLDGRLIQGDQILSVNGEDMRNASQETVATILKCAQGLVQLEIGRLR

MAGI1_2, Q96QZ7 = molecular target: MAGI1_2, Q96QZ7
Sequence of MAGI1_2, Q96QZ7 (Q96QZ7 456-580): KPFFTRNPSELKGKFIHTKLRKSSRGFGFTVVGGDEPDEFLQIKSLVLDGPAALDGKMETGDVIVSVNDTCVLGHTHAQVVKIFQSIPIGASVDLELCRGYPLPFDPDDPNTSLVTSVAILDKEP

IL16_3, Q14005 = molecular target: IL16_3, Q14005
Sequence of IL16_3, Q14005 (Q14005 1107-1207): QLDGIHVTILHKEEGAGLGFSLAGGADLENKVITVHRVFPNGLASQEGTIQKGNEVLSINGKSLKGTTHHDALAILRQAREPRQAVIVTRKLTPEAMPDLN

LIN7A, O14910 = molecular target: T5, LIN7A, O14910
TJP1_2, Q07157 = molecular target: TJP1_2, Q07157
Sequence of TJP1_2, Q07157 (Q07157 181-274): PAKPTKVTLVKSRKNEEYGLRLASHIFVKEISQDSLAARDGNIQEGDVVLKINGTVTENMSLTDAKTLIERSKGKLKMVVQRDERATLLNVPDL

TX1BP3, O14907 = molecular target: T6, TX1BP3, O14907
APBA2_2, Q99767 = molecular target: T7, APBA2_2, Q99767
MPP2, Q14168 = molecular target: T8, MPP2, Q14168
NHERF3_4, Q5T2W1 = molecular target: T9, NHERF3_4, Q5T2W1
Inadl_5, Q8NI35 = molecular target: Inadl_5, Q8NI35
Sequence of Inadl_5, Q8NI35 (Q8NI35 673-780): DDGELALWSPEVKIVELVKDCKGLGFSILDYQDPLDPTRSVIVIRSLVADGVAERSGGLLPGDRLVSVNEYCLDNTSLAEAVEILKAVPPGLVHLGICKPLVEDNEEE

RADIL, Q96JH8 = molecular target: T10, RADIL, Q96JH8
TJP2_1, Q9UDY2 = molecular target: TJP2_1, Q9UDY2
Sequence of TJP2_1, Q9UDY2 (Q9UDY2 24-128): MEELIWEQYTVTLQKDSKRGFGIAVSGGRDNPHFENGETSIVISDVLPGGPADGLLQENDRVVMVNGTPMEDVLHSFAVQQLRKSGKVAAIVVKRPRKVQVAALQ

PCLO, Q9Y6V0 = molecular target: T11, PCLO, Q9Y6V0
FRMPD2_2, Q68DX3 = molecular target: FRMPD2_2, Q68DX3
Sequence of FRMPD2_2, Q68DX3 (Q68DX3 944-1038): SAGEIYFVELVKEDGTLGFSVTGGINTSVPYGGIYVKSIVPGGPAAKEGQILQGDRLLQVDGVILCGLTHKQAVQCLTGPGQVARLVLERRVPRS

LNX2_2, Q8N448 = molecular target: T12, LNX2_2, Q8N448
Inadl_10, Q8NI35 = molecular target: Inadl_10, Q8NI35
Sequence of Inadl_10, Q8NI35 (Q8NI35 1673-1763): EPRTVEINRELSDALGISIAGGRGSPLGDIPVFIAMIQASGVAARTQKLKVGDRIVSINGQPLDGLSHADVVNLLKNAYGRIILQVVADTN

Row | pKd (LNX1_3, Q8TBB1) | pKd (Inadl_8, Q8NI35) | pKd (ARHGEF12, Q9NZN5-2) | pKd (DFNB31_2, Q9P202) | pKd (FRMPD2_3, Q68DX3) | pKd (MAGI1_1, Q96QZ7) | pKd (HTRA4, P83105) | pKd (GRIP1_7, Q9Y3R0) | pKd (MAGI3_2, Q5TCQ9) | pKd (MPDZ_10, O75970) | pKd (Inadl_9, Q8NI35) | pKd (MAGI1_2, Q96QZ7) | pKd (IL16_3, Q14005) | pKd (LIN7A, O14910) | pKd (TJP1_2, Q07157) | pKd (TX1BP3, O14907) | pKd (APBA2_2, Q99767) | pKd (MPP2, Q14168) | pKd (NHERF3_4, Q5T2W1) | pKd (Inadl_5, Q8NI35) | Binder | further results
1 | 4.07 | 3.66 | below the threshold | below the threshold | 3.58 | below the threshold | 3.98 | 3.56 | below the threshold | below the threshold | 3.69 | below the threshold | below the threshold | below the threshold | below the threshold | 3.77 | below the threshold | below the threshold | below the threshold | below the threshold | VCMGDHWFDV [PRKN, O60260] | pKd (RADIL, Q96JH8): 4.44; pKd (TJP2_1, Q9UDY2): below the threshold; pKd (PCLO, Q9Y6V0): below the threshold; pKd (FRMPD2_2, Q68DX3): below the threshold; pKd (LNX2_2, Q8N448): 4.57; pKd (Inadl_10, Q8NI35): below the threshold
2 | below the threshold | below the threshold | 3.61 | below the threshold | below the threshold | below the threshold | below the threshold | below the threshold | below the threshold | below the threshold | below the threshold | below the threshold | below the threshold | below the threshold | below the threshold | below the threshold | below the threshold | below the threshold | 4.64 | below the threshold | LLQEEWETVM [PTH1R, Q03431] | pKd (RADIL, Q96JH8): 3.99; pKd (TJP2_1, Q9UDY2): below the threshold; pKd (PCLO, Q9Y6V0): below the threshold; pKd (FRMPD2_2, Q68DX3): below the threshold; pKd (LNX2_2, Q8N448): below the threshold; pKd (Inadl_10, Q8NI35): below the threshold

Second part, the binder before the results:

Row | Binder | pKd (LNX1_3, Q8TBB1) | pKd (Inadl_8, Q8NI35) | pKd (ARHGEF12, Q9NZN5-2) | pKd (DFNB31_2, Q9P202) | pKd (FRMPD2_3, Q68DX3) | pKd (MAGI1_1, Q96QZ7) | pKd (HTRA4, P83105) | pKd (GRIP1_7, Q9Y3R0) | pKd (MAGI3_2, Q5TCQ9) | pKd (MPDZ_10, O75970) | pKd (Inadl_9, Q8NI35) | pKd (MAGI1_2, Q96QZ7) | pKd (IL16_3, Q14005) | pKd (LIN7A, O14910) | pKd (TJP1_2, Q07157) | pKd (TX1BP3, O14907) | pKd (APBA2_2, Q99767) | pKd (MPP2, Q14168) | pKd (NHERF3_4, Q5T2W1) | pKd (Inadl_5, Q8NI35) | further results
3 | HLSTRQGTCV [ATRNL1, Q5VV63] | below the threshold | 4.25 | 3.51 | below the threshold | below the threshold | below the threshold | 4.33 | below the threshold | 5.16 | 3.75 | 4.1 | 4.65 | below the threshold | below the threshold | below the threshold | below the threshold | below the threshold | below the threshold | below the threshold | 4.04 | pKd (RADIL, Q96JH8): 4.28; pKd (TJP2_1, Q9UDY2): 4.35; pKd (PCLO, Q9Y6V0): below the threshold; pKd (FRMPD2_2, Q68DX3): below the threshold; pKd (LNX2_2, Q8N448): 5.01; pKd (Inadl_10, Q8NI35): below the threshold
4 | HYPASPDSWV [CTNND2, Q9UQB3] | below the threshold | 4.12 | below the threshold | below the threshold | below the threshold | below the threshold | 4.06 | 3.75 | 3.86 | below the threshold | 3.9 | below the threshold | below the threshold | below the threshold | 4.19 | 5.15 | below the threshold | below the threshold | below the threshold | 3.64 | pKd (RADIL, Q96JH8): 5.02; pKd (TJP2_1, Q9UDY2): 4.37; pKd (PCLO, Q9Y6V0): below the threshold; pKd (FRMPD2_2, Q68DX3): 4.54; pKd (LNX2_2, Q8N448): 4.72; pKd (Inadl_10, Q8NI35): 3.53
